Source: US20260191981A1 (ARROWHEAD PHARMACEUTICALS, published 2026)
Numbering of substitutions follows the chain as printed. Values belong to the binder of their own block, whether it stands above or below them.

Experiments:
[1] = molecular target: T1, human transferrin receptor 1 (hTfR1) (human, UniProt P02786 89-760, limits assumed); assay: competition ELISA, Fab
T1 construct: The selections used the biotinylated ECD domain of hTfR1

[2] = molecular target: T2, cynomolgus monkey transferrin receptor 1 (cTfR1) (cynomolgus monkey, UniProt H9EXL1 89-760 (rhesus entry)); assay: competition ELISA, Fab
T2 construct: The ELISA against cTfR1 is not described in the text

[3] = molecular target: T1, human transferrin receptor 1 (hTfR1); assay: competition phage ELISA (phage-displayed Fab)
[4] = molecular target: T2, cynomolgus monkey transferrin receptor …; assay: competition phage ELISA (phage-displayed Fab)
[5] = molecular target: T3, his-tagged hTfR1 (Acro Biosystems p/n CD1-H5243) (human, UniProt P02786 89-760); assay: SPR, Biacore X100, His-tagged TfR1 captured by anti-His
T3 construct: Bought reagent of the SPR assay
Protocol: Samples were analyzed via Surface Plasmon Resonance (SPR) to determine kinetics against human transferrin receptor 1 (hTfR1). Briefly, a Biacore X100 (Cytiva) was used for SPR measurements using a CM5 chip (carboxymethylated dextran surface, Cytiva p/n BR100399) with anti-histidine antibody irreversibly immobilized on the surface of both flow cells for the reversible capture of his-tagged hTfR1 (Acro Biosystems p/n CD1-H5243). The anti-histidine antibody was irreversibly immobilized via amine coupling using Cytiva provided Amine Coupling Kit (p/n BR100050) and His Capture Kit (p/n 28995056). […] Sample diluent was prepared in house and is composed of 10 mM HEPES buffer pH 7.4, 150 mM NaCl, 3 mM EDTA, and 0.05% Tween 20. Cytiva caps and vials compatible for Biacore X100 are used for sample analysis. Each analysis cycle consists of a capture step followed by sample or blank injection, and finally a regeneration step that removes any sample and hTfR1 on the sensor surface. The capture step was performed at 5 μL/min with a contact time of 24 seconds over the active flow cell only, followed by a fluidics wash with 0.1% Tween 20. Generally, 2 μg/mL hTfR1 is a sufficient concentration to observe adequate hTfR1 captured consistently between cycles. Sample or buffer was injected at 30 μL/min with a contact time of 180 seconds and a dissociation time of 180 seconds followed by a fluidics wash with 0.1% Tween 20. A 10 mM glycine solution at pH 1.5 (provided in His Capture Kit) was used for regeneration at 30 μL/min with a 60 second contact time. A cycle was performed for each sample concentration analyzed along with one cycle repeating one concentration for variability evaluation and 2-3 buffer cycles. Results were analyzed in Biacore Evaluation Software. Buffer cycles were averaged and subtracted from sample injections prior to kinetic fitting. A monovalent or kinetic fit was specified as relevant for the sample analyzed. Accuracy of the fit was evaluated and data points are excluded as applicable. […]

[6] = molecular target: T4, his-tagged cTfR1 (Acro Biosystems p/n TFR-C524a) (cynomolgus monkey, UniProt H9EXL1 89-760 (rhesus entry)); assay: as above
T4 construct: Bought reagent of the SPR assay
Protocol: Samples were analyzed via Surface Plasmon Resonance (SPR) to determine kinetics against cynomolgus monkey transferrin receptor 1 (cTfR1). Briefly, a Biacore X100 (Cytiva) was used for SPR measurements using a CM5 chip (carboxymethylated dextran surface, Cytiva p/n BR100399) with anti-histidine antibody irreversibly immobilized on the surface of both flow cells for the reversible capture of his-tagged cTfR1 (Acro Biosystems p/n TFR-C524a). The anti-histidine antibody was irreversibly immobilized via amine coupling using Cytiva provided Amine Coupling Kit (p/n BR100050) and His Capture Kit (p/n 28995056). […] Sample diluent was prepared in house and is composed of 10 mM HEPES buffer pH 7.4, 150 mM NaCl, 3 mM EDTA, and 0.05% Tween 20. Cytiva caps and vials compatible for Biacore X₁₀₀ were used for sample analysis. Each analysis cycle consists of a capture step followed by sample or blank injection, and finally a regeneration step that removes any sample and cTfR1 on the sensor surface. The capture step was performed at 5 μL/min with a contact time of 24 seconds over the active flow cell only, followed by a fluidics wash with 0.1% Tween 20. Generally, 2 μg/mL hTfR1 was a sufficient concentration to observe adequate hTfR1 captured consistently between cycles. Sample or buffer was injected at 30 μL/min with a contact time of 180 seconds and dissociation time of 180 seconds followed by a fluidics wash with 0.1% Tween 20. A 10 mM glycine solution at pH 1.5 (provided in His Capture Kit) was used for regeneration at 30 μL/min with a 60 second contact time. A cycle was performed for each sample concentration analyzed along with one cycle repeating one concentration for variability evaluation and 2-3 buffer cycles. Results were analyzed in Biacore Evaluation Software. Buffer cycles were averaged and subtracted from sample injections prior to kinetic fitting. A monovalent or kinetic fit was specified as relevant for the sample analyzed. Accuracy of the fit is evaluated and data points are excluded as applicable.

T3 sequence (P02786 89-760 limits assumed): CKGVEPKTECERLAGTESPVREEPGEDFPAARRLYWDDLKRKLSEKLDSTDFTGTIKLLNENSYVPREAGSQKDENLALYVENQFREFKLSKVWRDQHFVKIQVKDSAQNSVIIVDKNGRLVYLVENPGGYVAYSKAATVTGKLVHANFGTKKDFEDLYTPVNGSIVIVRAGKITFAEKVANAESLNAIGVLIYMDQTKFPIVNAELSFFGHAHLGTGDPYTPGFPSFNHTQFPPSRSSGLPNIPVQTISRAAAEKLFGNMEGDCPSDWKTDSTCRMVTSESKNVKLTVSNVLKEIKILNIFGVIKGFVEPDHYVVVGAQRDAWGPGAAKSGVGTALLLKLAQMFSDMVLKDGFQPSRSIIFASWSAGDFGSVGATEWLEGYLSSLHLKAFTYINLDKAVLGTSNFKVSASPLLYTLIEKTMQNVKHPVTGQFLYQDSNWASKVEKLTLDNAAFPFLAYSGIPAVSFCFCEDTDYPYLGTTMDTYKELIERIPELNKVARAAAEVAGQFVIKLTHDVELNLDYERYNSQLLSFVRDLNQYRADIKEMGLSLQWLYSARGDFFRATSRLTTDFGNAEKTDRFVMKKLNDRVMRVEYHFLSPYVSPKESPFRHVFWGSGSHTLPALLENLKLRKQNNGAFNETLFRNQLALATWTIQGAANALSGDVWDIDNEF
T1 sequence (P02786 89-760 limits assumed): as above
T2 sequence (chain, as listed by the source): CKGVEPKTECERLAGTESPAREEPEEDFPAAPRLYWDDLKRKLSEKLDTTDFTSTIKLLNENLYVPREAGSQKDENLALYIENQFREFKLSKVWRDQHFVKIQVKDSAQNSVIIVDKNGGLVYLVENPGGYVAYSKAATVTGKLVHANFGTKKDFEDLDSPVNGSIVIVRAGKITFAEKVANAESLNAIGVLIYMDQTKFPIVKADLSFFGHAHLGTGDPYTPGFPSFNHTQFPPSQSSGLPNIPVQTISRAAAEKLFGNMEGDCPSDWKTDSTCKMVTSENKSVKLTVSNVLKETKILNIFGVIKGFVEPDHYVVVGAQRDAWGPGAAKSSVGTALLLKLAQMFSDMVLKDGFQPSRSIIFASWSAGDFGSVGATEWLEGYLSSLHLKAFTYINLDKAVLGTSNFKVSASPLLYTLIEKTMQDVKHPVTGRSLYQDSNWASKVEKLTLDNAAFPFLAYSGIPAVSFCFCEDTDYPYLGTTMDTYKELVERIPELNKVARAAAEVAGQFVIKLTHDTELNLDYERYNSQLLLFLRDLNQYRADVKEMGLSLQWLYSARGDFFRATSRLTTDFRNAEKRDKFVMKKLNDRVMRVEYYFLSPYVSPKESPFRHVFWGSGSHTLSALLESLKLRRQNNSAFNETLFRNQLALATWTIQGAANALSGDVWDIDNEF
T4 sequence (chain, as listed by the source): as above

B1: Fab0065 (Fab, V domains shown)
VH: EVQLVESGGGLVQPGGSLRLSCATSGYTFTSYWVHWVRQAPGKGLEWVAEINPTNGRSNYIEKFKSRITLSVDKSKSTVYLQMNSLRAEDTAVYYCARGTRAYHYWGQGTLVTVSS
VL: DIQLTQSPSSLSASVGDRVTITCRASDNLYRNLAWYQQKPGKAPKLLIYDATKLASGVPSRFSGSGSGTDYTLTISSLQPEDFATYYCQHFWGTPLTFGQGTKVEIKR
Kd [1]: 0.33 nM
Kd [2]: 2.87 nM
Kd [3]: 0.26 nM
Kd [4]: 0.57 nM
Kd [5]: 0.413 nM
koff [5]: 0.00071 s⁻¹
kon [5]: 1.72e+06 M⁻¹ s⁻¹
Kd [6]: 1.45 nM
koff [6]: 0.00259 s⁻¹
kon [6]: 1.79e+06 M⁻¹ s⁻¹

B2: Fab0002 (Fab, V domains shown)
VH: EVQLVQSGAEVKKPGASVKVSCKASGYTFTSYWMHWVRQAPGQRLEWIGEINPTNGRTNYIEKFKSRATLTVDKSASTAYMELSSLRSEDTAVYYCARGTRAYHYWGQGTMVTVSS
VL: B1 VL with L4M, R31S, A43S, I48V, K53N, S56D
Kd [1]: 7.28 nM
Kd [2]: 33.8 nM
Kd [3]: 2.8 nM
Kd [4]: 0.96 nM
Kd [5]: 7.68 nM
koff [5]: 0.00499 s⁻¹
kon [5]: 649000 M⁻¹ s⁻¹
Kd [6]: 25.2 nM
koff [6]: 0.0155 s⁻¹
kon [6]: 614000 M⁻¹ s⁻¹

B9: Fab0066 (Fab, V domains shown)
VH: B1 VH with S58V
VL: B1 VL with N28G, R31S, T52F, K53N
Kd [1]: 0.91 nM
Kd [2]: 9.4 nM
Kd [3]: 0.87 nM
Kd [4]: 1.34 nM
Kd [5]: 1.41 nM
koff [5]: 0.00139 s⁻¹
kon [5]: 985000 M⁻¹ s⁻¹
Kd [6]: 4.35 nM
koff [6]: 0.00509 s⁻¹
kon [6]: 1.17e+06 M⁻¹ s⁻¹

B10: Fab0068 (Fab, V domains shown)
VH: B1 VH with S58V
VL: B1 VL with N28G, R31S
Kd [1]: 0.84 nM
Kd [2]: 7.37 nM
Kd [3]: 0.43 nM
Kd [4]: 1.75 nM
Kd [5]: 0.97 nM
koff [5]: 0.00113 s⁻¹
kon [5]: 1.17e+06 M⁻¹ s⁻¹
Kd [6]: 2.34 nM
koff [6]: 0.00366 s⁻¹
kon [6]: 1.57e+06 M⁻¹ s⁻¹

B11: Fab0067 (Fab, V domains shown)
VH: B1 VH with S58T
VL: B1 VL
Kd [1]: 0.52 nM
Kd [2]: 3.02 nM
Kd [3]: 0.35 nM
Kd [4]: 0.95 nM
Kd [5]: 0.543 nM
koff [5]: 0.000804 s⁻¹
kon [5]: 1.48e+06 M⁻¹ s⁻¹
Kd [6]: 1.75 nM
koff [6]: 0.00328 s⁻¹
kon [6]: 1.87e+06 M⁻¹ s⁻¹

Second part, the binder after the results:

Kd [1]: 0.19 nM
Kd [2]: 11.9 nM
Kd [3]: 0.19 nM
Kd [4]: 1.18 nM
Kd [5]: 0.331 nM
koff [5]: 0.000614 s⁻¹
kon [5]: 1.86e+06 M⁻¹ s⁻¹
Kd [6]: 3.88 nM
koff [6]: 0.0108 s⁻¹
kon [6]: 2.78e+06 M⁻¹ s⁻¹
B3: Fab0072 (Fab, V domains shown)
VH: B1 VH with T30N, V34M, S58F
VL: B1 VL with T52R, K53N

Kd [1]: 0.75 nM
Kd [2]: 4.68 nM
Kd [3]: 0.35 nM
Kd [4]: 1.29 nM
Kd [5]: 0.783 nM
koff [5]: 0.00108 s⁻¹
kon [5]: 1.38e+06 M⁻¹ s⁻¹
Kd [6]: 2.72 nM
koff [6]: 0.00375 s⁻¹
kon [6]: 1.38e+06 M⁻¹ s⁻¹
B4: Fab0069 (Fab, V domains shown)
VH: B1 VH
VL: B1 VL with N28G, R31S

Kd [1]: 0.46 nM
Kd [2]: 17.5 nM
Kd [3]: 0.46 nM
Kd [4]: 2.14 nM
Kd [5]: 0.471 nM
koff [5]: 0.000782 s⁻¹
kon [5]: 1.66e+06 M⁻¹ s⁻¹
Kd [6]: 4.31 nM
koff [6]: 0.0105 s⁻¹
kon [6]: 2.44e+06 M⁻¹ s⁻¹
B5: Fab0074 (Fab, V domains shown)
VH: B1 VH with T30K, V34M, S58T
VL: B1 VL with N28G, R31S, T52K, K53N

Kd [1]: 1.11 nM
Kd [2]: 15.3 nM
Kd [3]: 0.49 nM
Kd [4]: 1.39 nM
Kd [5]: 0.923 nM
koff [5]: 0.0012 s⁻¹
kon [5]: 1.3e+06 M⁻¹ s⁻¹
Kd [6]: 4.52 nM
koff [6]: 0.00582 s⁻¹
kon [6]: 1.29e+06 M⁻¹ s⁻¹
B6: Fab0070 (Fab, V domains shown)
VH: B1 VH with Y27F, V34M, S58T
VL: B1 VL with N28K, R31S, K53L

Kd [1]: 0.43 nM
Kd [2]: 53.3 nM
Kd [3]: 0.45 nM
Kd [4]: 0.74 nM
Kd [5]: 0.553 nM
koff [5]: 0.000865 s⁻¹
kon [5]: 1.56e+06 M⁻¹ s⁻¹
Kd [6]: 8.13 nM
koff [6]: 0.0112 s⁻¹
kon [6]: 1.38e+06 M⁻¹ s⁻¹
B7: Fab0071 (Fab, V domains shown)
VH: B1 VH with T30N, V34M, S58T
VL: B1 VL with N28G, R31S, T52R, K53N

Kd [1]: 0.32 nM
Kd [2]: 8.68 nM
Kd [3]: 0.29 nM
Kd [4]: 1.95 nM
Kd [5]: 0.351 nM
koff [5]: 0.00065 s⁻¹
kon [5]: 1.85e+06 M⁻¹ s⁻¹
Kd [6]: 2.85 nM
koff [6]: 0.00677 s⁻¹
kon [6]: 2.38e+06 M⁻¹ s⁻¹
B8: Fab0073 (Fab, V domains shown)
VH: B1 VH with T30K, V34M, S58T
VL: B1 VL
